Target: human complement receptor 3 (CR3) on CR3-transfected CHO cells (CHO/CR3) (human), P11215
Assay: flow cytometry on cells
Conditions: remark: other sources report otherwise

B1: Factor H (fH), purified human, P08603 19-1231 (natural protein)
chain: EDCNELPPRRNTEILTGSWSDQTYPEGTQAIYKCRPGYRSLGNVIMVCRKGEWVALNPLRKCQKRPCGHPGDTPFGTFTLTGGNVFEYGVKAVYTCNEGYQLLGEINYRECDTDGWTNDIPICEVVKCLPVTAPENGKIVSSAMEPDREYHFGQAVRFVCNSGYKIEGDEEMHCSDDGFWSKEKPKCVEISCKSPDVINGSPISQKIIYKENERFQYKCNMGYEYSERGDAVCTESGWRPLPSCEEKSCDNPYIPNGDYSPLRIKHRTGDEITYQCRNGFYPATRGNTAKCTSTGWIPAPRCTLKPCDYPDIKHGGLYHENMRRPYFPVAVGKYYSYYCDEHFETPSGSYWDHIHCTQDGWSPAVPCLRKCYFPYLENGYNQNYGRKFVQGKSIDVACHPGYALPKAQTTVTCMENGWSPTPRCIRVKTCSKSSIDIENGFISESQYTYALKEKAKYQCKLGYVTADGETSGSITCGKDGWSAQPTCIKSCDIPVFMNARTKNDFTWFKLNDTLDYECHDGYESNTGSTTGSIVCGYNGWSDLPICYERECELPKIDVHLVPDRKKDQYKVGEVLKFSCKPGFTIVGPNSVQCYHFGLSPDLPICKEQVQSCGPPPELLNGNVKEKTKEEYGHSEVVEYYCNPRFLMKGPNKIQCVDGEWTTLPVCIVEESTCGDIPELEHGWAQLSSPPYYYGDSVEFNCSESFTMIGHRSITCIHGVWTQLPQCVAIDKLKKCKSSNLIILEEHLKNKKEFDHNSNIRYRCRGKEGWIHTVCINGRWDPEVNCSMAQIQLCPPPPQIPNSHNMTTTLNYRDGEKVSVLCQENYLIQEGEEITCKDGRWQSIPLCVEKIPCSQPPQIEHGTINSSRSSQESYAHGTKLSYTCEGGFRISEENETTCYMGKWSSPPQCEGLPCKSPPEISHGVVAHMSDSYQYGEEVTYKCFEGFGIDGPAIAKCLGEKWSHPPSCIKTDCLSLPSFENAIPMGEKKDVYKAGEQVTYTCATYYKMDGASNVTCINSRWTGRPTCRDTSCVNPPTVQNAYIVSRQMSKYPSGERVRYQCRSPYEMFGDEEVMCLNGNWTEPPQCKDSTGKCGPPPPIDNGDITSFPLSVYAPASSVEYQCQNLYQLEGNKRITCRNGQWSEPPKCLHPCVISREIMENYNIALRWTAKQKLYSRTGESVEFVCKRGYRLSSRSHTLRTTCWDGKLEYPTCAKR
  fold increase in binding to CHO/CR3 cells compared to CHO/NEO cells: 4 fold
